T1: bovine colostrum GalNAc-transferase (Bos taurus, UniProt Q07537)
T1 construct: from tissue; host or cells: bovine colostrum
T1 sequence (Q07537 41-559 limits assumed): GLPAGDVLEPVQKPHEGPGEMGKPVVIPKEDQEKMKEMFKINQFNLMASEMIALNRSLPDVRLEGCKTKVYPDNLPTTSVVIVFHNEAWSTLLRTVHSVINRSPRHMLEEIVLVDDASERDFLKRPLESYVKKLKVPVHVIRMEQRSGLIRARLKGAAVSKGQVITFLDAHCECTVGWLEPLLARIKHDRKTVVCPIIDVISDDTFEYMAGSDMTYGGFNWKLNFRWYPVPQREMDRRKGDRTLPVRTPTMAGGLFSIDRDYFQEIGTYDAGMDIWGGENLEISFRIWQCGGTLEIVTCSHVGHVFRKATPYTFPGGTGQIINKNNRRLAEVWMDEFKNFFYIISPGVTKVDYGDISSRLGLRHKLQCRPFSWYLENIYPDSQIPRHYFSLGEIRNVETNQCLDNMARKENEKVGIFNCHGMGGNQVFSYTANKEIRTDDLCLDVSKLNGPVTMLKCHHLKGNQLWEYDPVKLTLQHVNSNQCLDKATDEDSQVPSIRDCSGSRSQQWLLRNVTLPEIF

B1: Myelin basic protein: efficient acceptor for GalNAc-transferase, included as a positive control (protein, UniProt P02686 1-304, looked up)
Myelin basic protein: MGNHAGKRELNAEKASTNSETNRGESEKKRNLGELSRTTSEDNEVFGEADANQNNGTSSQDTAVTDSKRTADPKNAWQDAHPADPGSRPHLIRLFSRDAPGREDNTFKDRPSESDELQTIQEDSAATSESLDVMASQKRPSQRHGSKYLATASTMDHARHGFLPRHRDTGILDSIGRFFGGDRGAPKRGSGKDSHHPARTAHYGSLPQKSHGRTQDENPVVHFFKNIVTPRTPPPSQGKGRGLSLSRFSWGAEGQRPGFGYGGRASDYKSAHKGFKGVDAQGTLSKIFKLGGRDSRSGSPMARR
B2: Bovine rhodanese: cytoplasmic protein with predicted glycosylation sites, tested as acceptor (protein)
chain: VHQVLYRALVSTKWLAESVRAGKVGPGLRVLDASWYSPGTREARKEYLERHVPGASFFDIEECRDKASPYEVMLPSEAGFADYVGSLGISNDTHVVVYDGDDLGSFYAPRVWWMFRVFGHRTVSVLNGGFRNWLKEGHPVTSEPSRPEPAIFKATLNRSLLKTYEQVLENLESKRFQLVDSRAQGRYLGTQPEPDAVGLDSGHIRGSVNMPFMNFLTEDGFEKSPEELRAMFEAKKVDLTKPLIATCRKGVTACHIALAAYLCGKPDVAIYDGSWFEWFHRAPPETWVSQGKGGKA
B3: Subtilisin: bacterial protein tested as acceptor (protein, UniProt P00782 108-382, looked up)
Subtilisin BPN': AQSVPYGVSQIKAPALHSQGYTGSNVKVAVIDSGIDSSHPDLKVAGGASMVPSETNPFQDNNSHGTHVAGTVAALNNSIGVLGVAPSASLYAVKVLGADGSGQYSWIINGIEWAIANNMDVINMSLGGPSGSAALKAAVDKAVASGVVVVAAAGNEGTSGSSSTVGYPGKYPSVIAVGAVDSSNQRASFSSVGPELDVMAPGVSIQSTLPGNKYGAYNGTSMASPHVAGAAALILSKHPNWTNTQVRSSLENTTTKLGDSFYYGKGLINVQAAAQ
B4: GalNAcTs: secreted, soluble recombinant form of bovine GalNAc-transferase expressed in Sf9 cells (protein)
chain: DPSPALEPVQKPHEGPGEMGKPVVIPKEDQEKMKEMFKINQFNLMASEMIALNRSLPDVRLEGCKTKVYPDNLPTTSVVIVFHNEAWSTLLRTVHSVINRSPRHMLEEIVLVDDASERDFLKRPLESYVKKLKVPVHVIRMEQRSGLIRARLKGAAVSKGQVITFLDAHCECTVGWLEPLLARIKHDRKTVVCPIIDVISDDTFEYMAGSDMTYGGFNWKLNFRWYPVPQREMDRRKGDRTLPVRTPTMAGGLFSIDRDYFQEIGTYDAGMDIWGGENLEISFRIWQCGGTLEIVTCSHVGHVFRKATPYTFPGGTGQIINKNNRRLAEVWMDEFKNFFYIISPGVTKVDYGDISSRLGLRHKLQCRPFSWYLENIYPDSQIPRHYFSLGEIRNVETNQCLDNMARKENEKVGIFNCHGMGGNQVFSYTANKEIRTDDLCLDVSKLNGPVTMLKCHHLKGNQLWEYDPVKLTLQHVNSNQCLDKATDEDSQVPSIRDCSGSRSQQWLLRNVTLPEIF

Key:
[1] = target: T1, bovine colostrum GalNAc-transferase; test: Transfer of N-acetylgalactosamine to protein acceptors; assay type: biochemical; details: for Product formed, Native: native acceptor 65 μM; for Product formed, Native / Product formed, Reduced and carboxymethylated: enzyme approx. 65 mU/ml; for Product formed, Reduced and carboxymethylated: reduced and carboxymethylated acceptor 65 μM
Description: The above conclusions and the predictions of the specificity algorithm are validated experimentally by studying the ability of bovine colostrum GalNAc-transferase to transfer N-acetylgalactosamine to a variety of acceptors, both native proteins and synthetic acceptor peptides. The transfer of N-acetylgalactosamine to protein acceptors is assayed as described by Elhammer and Kornfeld, 1986, with minor modifications. The concentration of UDP-GalNAc is saturating in all assays; a Km of 8 μM is reported for bovine colostrum GalNAc-transferase (Elhammer and Kornfeld, 1986).
The transfer of N-acetylgalactosamine to protein acceptors was assayed
under standard conditions (see Material and Methods). The acceptor
concentration was 65 μM, the enzyme concentration approximately 65
mU/ml and assay time was 60 minutes. The transfer to both native and
reduced-carboxymethylated acceptors was assayed.

bovine apomucin = test: Specific activity of the purified enzyme preparation using bovine apomucin as acceptor; assay type: biochemical
Description: The standard assay for UDP-GalNAc:polypeptide, N-acetylgalactosaminyltransferase activity during purification contained the following components in a final volume of 80 μl: 50 mM Imidazole pH 7.2, 10 mM MnCl2, 0.5% Triton X-100, 15 μM UDP-GalNAc, UDP[1-^3 H-]GalNAc (27,000 cpm/assay), 0.15 mg/ml apomucin and varying amounts of enzyme (see individual experiments). The reaction mixture is incubated at 37° C. for 5-10 minutes (see individual experiments) and the reaction product is TCA precipitated and radioactivity measured as described. Assays for activity in lysates from Spodoptera frugiperda cell line 9 (hereinafter referred to as Sf9 cells) are carried out as described by Thomsen et al., (1990).

Row | Molecule | Product formed, column Reduced and carboxymethylated (acceptor not reduced and carboxymethylated in this experiment) ([1]; footnote a: not reduced and carboxymethylated, 65 μM, 60 minutes) [nmol/min/mg] | Product formed, Native ([1]; 60 minutes) [nmol/min/mg] | Product formed, Reduced and carboxymethylated ([1]; 60 minutes) [nmol/min/mg] | transfer rate, times slower as compared to myelin basic protein ([1]; denatured (reduced and carboxymethylated) acceptor) [times] | specific activity of the purified enzyme preparation (bovine apomucin)
1 | B1 | 21.3 | 22.2 |  |  | 
2 | B2 |  | < 0.1 | 3.3 |  | 
3 | B3 |  | < 0.1 | 0.6 | 35 | 
4 | B4 |  |  |  |  | approximately 2,160 U/mg protein
